Experimental data: patent publication US20230049152A1 (Genentech, published 2023)

T1: human ACKR2 (human, UniProt O00590 1-384)
T1 construct: whole, on cells; transiently expressed on HEK293 cells
T1 sequence (looked up): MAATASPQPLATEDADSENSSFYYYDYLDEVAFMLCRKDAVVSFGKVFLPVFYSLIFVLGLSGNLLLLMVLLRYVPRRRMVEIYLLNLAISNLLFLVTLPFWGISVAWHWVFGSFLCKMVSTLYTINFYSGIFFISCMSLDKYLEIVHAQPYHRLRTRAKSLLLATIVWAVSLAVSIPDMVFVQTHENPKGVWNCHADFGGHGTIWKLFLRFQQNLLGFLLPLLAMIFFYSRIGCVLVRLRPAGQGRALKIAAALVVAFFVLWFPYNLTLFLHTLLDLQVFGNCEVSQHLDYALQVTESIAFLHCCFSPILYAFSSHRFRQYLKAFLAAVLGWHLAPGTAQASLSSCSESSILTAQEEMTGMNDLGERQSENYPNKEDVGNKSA

T2: T4A
T2 construct: single alanine mutant of hCCR8; also called hCCR8 T4A
T2 receptor chain: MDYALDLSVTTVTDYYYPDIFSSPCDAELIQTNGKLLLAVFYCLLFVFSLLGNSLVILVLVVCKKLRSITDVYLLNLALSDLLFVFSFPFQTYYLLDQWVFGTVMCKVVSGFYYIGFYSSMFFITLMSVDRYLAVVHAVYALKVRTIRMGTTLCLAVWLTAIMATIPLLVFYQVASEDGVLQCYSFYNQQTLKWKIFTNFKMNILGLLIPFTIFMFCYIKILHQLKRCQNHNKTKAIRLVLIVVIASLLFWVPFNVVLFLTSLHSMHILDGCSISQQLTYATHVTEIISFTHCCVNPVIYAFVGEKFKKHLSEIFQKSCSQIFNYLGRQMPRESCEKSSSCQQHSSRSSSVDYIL

T3: S23A
T3 construct: single alanine mutant of hCCR8; also called hCCR8 S23A
T3 receptor chain: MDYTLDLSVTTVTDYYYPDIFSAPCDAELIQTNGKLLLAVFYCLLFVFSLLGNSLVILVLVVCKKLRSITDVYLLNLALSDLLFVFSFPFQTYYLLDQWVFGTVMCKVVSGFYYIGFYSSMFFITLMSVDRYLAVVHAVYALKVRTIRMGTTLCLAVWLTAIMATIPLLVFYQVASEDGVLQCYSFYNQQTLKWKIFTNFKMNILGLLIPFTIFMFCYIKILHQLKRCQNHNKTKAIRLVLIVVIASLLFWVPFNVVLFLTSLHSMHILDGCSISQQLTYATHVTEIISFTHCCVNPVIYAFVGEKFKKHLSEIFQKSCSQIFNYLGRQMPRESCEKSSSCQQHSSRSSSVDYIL

T4: Y15A
T4 construct: single alanine mutant of hCCR8; also called hCCR8 Y15A
T4 receptor chain: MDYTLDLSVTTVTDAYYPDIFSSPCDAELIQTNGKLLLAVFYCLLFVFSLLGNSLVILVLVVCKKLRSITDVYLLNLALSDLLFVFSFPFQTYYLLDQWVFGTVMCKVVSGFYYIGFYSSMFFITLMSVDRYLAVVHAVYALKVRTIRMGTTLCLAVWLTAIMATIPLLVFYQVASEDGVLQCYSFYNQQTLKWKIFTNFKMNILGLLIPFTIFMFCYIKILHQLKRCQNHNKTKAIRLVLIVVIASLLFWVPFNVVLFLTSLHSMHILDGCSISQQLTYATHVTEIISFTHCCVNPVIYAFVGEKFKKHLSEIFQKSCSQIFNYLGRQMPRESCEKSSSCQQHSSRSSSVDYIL


Assays:
human CCR8 = human CCR8 (human, UniProt P51685 1-355); experiment: cell-based or functional assay
human ACKR2 = target: T1, human ACKR2; experiment: flow cytometry, HEK293 with N-term FLAG-tagged human ACKR2, procedure of FIG. 4
From the text: To confirm the selectivity to CCR8, the binding of hu.Ab3.H1L1, hu.Ab4.H1L1, and hu.Ab5.H1L1, as well as the Yoshida humanized anti-human CCR8, murine anti-human CCR8 mAb L263G8 (Biolegend, Commercial Ab) and murine anti-human CCR8 mAb 433H (BD Biosciences, Commercial Ab), were characterized by flow cytometry on HEK293 cells that were transiently transfected with plasmids encoding for FLAG-tagged other related human GPCRs (CCR2-5, CXCR4, ACKR2, and ACKR4). Cell surface expression of each GPCR was confirmed by staining with an anti-FLAG antibody control. In particular, HEK293 cells were transfected with N-term FLAG-tagged human CCR2, CCR3, CCR4, CCR5, CXCR4, ACKR2, ACKR4, hCCR8 constructs, or with a Mock construct using transIT X2 (reagent:DNA=3:1) for 24 hours, and surface stained with various anti-hCCR8 monoclonal antibodies at 5 ug/ml, or rabbit anti-Flag pAb (Sigma) followed by AF647-anti-hIgG or AF647-anti-RbIgG respectively. Antibodies hu.Ab4.H1L1, and hu.Ab5.H1L1, only stained the hCCR8-containing cells, confirming their specificity to hCCR8. […] Thus, the CCR8 selective hu.Ab4.H1L1 and hu.Ab5.H1L1 antibodies with the best ADCC activities were carried forward.
To reconfirm that the Ab4 and Ab5 variants remained selective to CCR8 compared to the corresponding HIL1 variants, binding was analyzed by flow cytometry following the procedure as described for FIG. 4A and FIG. 4B. […]

[1] = target: T5, CCR8 with C-terminal FLAG; experiment: flow cytometry, HEK293 transfected with CCR8 with C-terminal FLAG
T5 construct: expressed on transfected HEK293 cells; also called hCCR8 with a C-terminal FLAG tag

T4A = target: T2, T4A; experiment: flow cytometry, HEK293 transfected with hCCR8 T4A with C-terminal FLAG; sheet prints [huCCR8]=0.02 ug/ml
Method: (§1) FIGS. 16A-16B depict the epitope maps for hu.Ab5.H13L1 (FIG. 16A) and hu.Ab4.H12L3 (FIG. 16B) mAbs.
(§2) To epitope map fucosylated hu.Ab5.H13L1, the binding to alanine point mutations in human CCR8 was analyzed by flow cytometry.

S23A = target: T3, S23A; experiment: flow cytometry, HEK293 transfected with hCCR8 S23A with C-terminal FLAG; sheet prints [huCCR8]=0.02 ug/ml
Method: as §1, §2

Y15A = target: T4, Y15A; experiment: flow cytometry, HEK293 transfected with hCCR8 Y15A with C-terminal FLAG; sheet prints [huCCR8]=0.02 ug/ml

ADCP EC50, macrophages HR/FF (FIG. 14A) (human CCR8) [nM] | ADCP EC50, macrophages RR/FF (FIG. 14B) (human CCR8) [nM] | ADCP EC50, macrophages RR/VF (FIG. 14D) (human CCR8) [nM] | binding result (human ACKR2) | binding result [1] | binding result (T4A) | binding result (S23A) | binding result (Y15A) | Binder
0.35 | 0.81 | 0.41 | no binding (tested: 5 ug/ml) |  |  |  |  | hu.Ab4.H12L3 (antibody, human IgG1, kappa, fucosylated human IgG1; also called huCCR8-Ab4.H12L3.hIgG1; Ab4 variant) heavy: not shown light: DYQMTQSPSSLSASVGDRVTITCQASQSISSYLSWYQQKPGKAPKLLIYKASTLASGVPSRFSGSGSGTDFTLTISSLQPEDFATYYCQQGYTSSNIDNIFGGGTKVEIKRTVAAPSVFIFPPSDEQLKSGTASVVCLLNNFYPREAKVQWKVDNALQSGNSQESVTEQDSKDSTYSLSSTLTLSKADYEKHKVYACEVTHQGLSSPVTKSFNRGEC
 |  |  | no binding (tested: 5 ug/ml) | binds | binds | binds | binds | hu.Ab5.H13L1 (antibody, human IgG1, kappa, fucosylated human IgG1; also called Ab5 variant) heavy: not shown light: DIQVTQSPSSLSASVGDRVTITCQASENIANALAWYQQKPGKPPKFLIYGASNLASGVPSRFSGSGSGTDFTFTISSLQPEDIATYYCQQAYYGNSFVEGTFGGGTKVEIKRTVAAPSVFIFPPSDEQLKSGTASVVCLLNNFYPREAKVQWKVDNALQSGNSQESVTEQDSKDSTYSLSSTLTLSKADYEKHKVYACEVTHQGLSSPVTKSFNRGEC
